B1: Human P5CR1 R119G mutant (enzyme, UniProt P32322 1-319, looked up)
chain: MSVGFIGAGQLAFALAKGFTAAGVLAAHKIMASSPDMDLATVSALRKMGVKLTPHNKETVQHSDVLFLAVKPHIIPFILDEIGADIEDRHIVVSCAAGVTISSIEKKLSAFRPAPRVIGCMTNTPVVVREGATVYATGTHAQVEDGRLMEQLLSSVGFCTEVEEDLIDAVTGLSGSGPAYAFTALDALADGGVKMGLPRRLAVRLGAQALLGAAKMLLHSEQHPGQLKDNVSSPGGATIHALHVLESGGFRSLLINAVEASCIRTRELQSMADQEQVSPAAIKKTILDKVKLDSPAGTALSPSGHTKLLPRSLAPAGKD
notes: Pyrroline-5-carboxylate reductase 1 (P5CR1), human, encoded by PYCR1, with the ARCL-associated mutation R119G; monomer molecular weight printed as 33.3 kDa; Made by PCR mutagenesis of WT-pET28a-P5CR1; also called R119G P5CR1; pET28a-P5CR1-R119G; source: E. coli BL21 (DE3), inclusion bodies, denatured in 6 M urea, purified (Ni2+-chelating column), renatured, SEC
B2: Human P5CR1 R119H mutant (enzyme, UniProt P32322 1-319, looked up)
chain: MSVGFIGAGQLAFALAKGFTAAGVLAAHKIMASSPDMDLATVSALRKMGVKLTPHNKETVQHSDVLFLAVKPHIIPFILDEIGADIEDRHIVVSCAAGVTISSIEKKLSAFRPAPRVIHCMTNTPVVVREGATVYATGTHAQVEDGRLMEQLLSSVGFCTEVEEDLIDAVTGLSGSGPAYAFTALDALADGGVKMGLPRRLAVRLGAQALLGAAKMLLHSEQHPGQLKDNVSSPGGATIHALHVLESGGFRSLLINAVEASCIRTRELQSMADQEQVSPAAIKKTILDKVKLDSPAGTALSPSGHTKLLPRSLAPAGKD
notes: Pyrroline-5-carboxylate reductase 1 (P5CR1), human, encoded by PYCR1, with the mutation R119H; source: expressed mostly as inclusion bodies, purified with a Ni2+-chelating column; plasmid constructed 'by the previous method'

What was measured:
[1] = molecular target: the molecule itself; test: SEC; Superdex-75 column (10/300 mm), 20 mM Caps, pH 9.4, 0.5 M NaCl, 0.5 mL/min; refolded R119G mutant
[2] = molecular target: the molecule itself; test: SEC; R119H mutant (Fig. S4); column and buffer not stated

Protein	stoichiometry N [1]	stoichiometry N [2]
B1	2	–
B2	–	2

— paper PMC5286483, “Effect of R119G Mutation on Human P5CR1 Dynamic Property and Enzymatic Activity” (BioMed Research International, 2017)
